Data taken from publication PMC11626941, “FBLN7 mediates vascular smooth muscle cell phenotype switching and vascular remodeling in hypertension” (Theranostics, 2024).
“And” between values parts separate entries of the source, which are not always exact repeats. Equal values may be shown once.

Target: the molecule itself
Assay: immunoblot with non-reducing loading buffer; HEK293T transfected with varying concentrations of SDC4 plasmids; SDS-PAGE, positions of SDC4 tetramer, dimer and monomer

B1: Flag-tagged full-length mouse SDC4 (receptor, UniProt O35988 24-198, looked up)
chain: ESIRETEVIDPQDLLEGRYFSGALPDDEDAGGSDDFELSGSGDLDDTEEPRPFPEVIEPLVPLDNHIPENAQPGIRVPSEPKELEENEVIPKRAPSDVGDDMSNKVSMSSTAQGSNIFERTEVLAALIVGGVVGILFAVFLILLLVYRMKKKDEGSYDLGKKPIYKKAPTNEFYA
notes: Plasmids provided by GenePharma; Seen as monomer, dimer and tetramer bands on non-reducing blots; also called Flag-SDC4; Flag (SDC4); source: HEK293T, transfected (pcDNA 3.1), in lysate; not shown: Flag, C-terminal, kept
For B1, the “stoichiometry N” value was 2 and 4.
